test: soluble on expression in E. coli; label from the status in PepcDB or PDB records

Sequence | soluble on expression in E. coli
MHSLYLGVVKVMAKIILVYANCVNSTAKGDFALAGQIAKDLVREKTSDDIDVVLTSTLDGIARFESLYGKAVDGRVIIEGTSVGLCALELFESVDNEVVAFIEANRCKYAPSDILKRVLSPDSKFLFIGAANQKAIATGDKFTKSWLYISHKGDQPNVYEHFDEDDSLIQSVGLGDDRLGLPSLPKVDELPEMNSTQSQKIPSGEYGFMYLAAVHGIDDVYLMNQYMSLTEMGQYVLVGEYAKQSKEVQMVLHSLQYKGSSVSLTMPQIFFHDSVDNCLMRNMVSKSSGPLVVSTGVMSSIEAMQDGKLTYYQTMSNNTQFVASYLIAVKSICSSDTTLFGSMPKLIIDLSNLLFAEKPLKESQMKEIKSLLGMSSVTSRLGEMNKRIIAKANGTVAGELLSFIGKPKTTQSHKQCISVCMSLRKSGETTSPIFDQALRRAAAWGRLFELKVLIASMSTSDLNKKDKTGNQYTALHWAVMQGHLDCARLLVKSGASVDIQDKSGKSPLHYAIKRGDKETIKLLVQAGASLEIMDDSGAKPCDGSESWVPEYIKSCYEKSGHKSSSLF | not soluble
MHSPDPFTDHPDSDDSFEKFVPTPNVNRRRSDAIIVSDEGSFDGITGYSQVTVIENCPNTTVLEDENKRANPDDTITRMLESSDEEDETENNSDNDALADLLKSFRTEDQKRKEVDIEQAANISIDIFGDLIEEVDSEHEAAEYPDREGGNSMDKQGTMLPVEVPIQNNIKLIPRKRRLEPKSYDCEPSTSAAHGPVGVVSSDSGEYWNQQKTITIHGQNFEINNFNDYMRMKITKLNHQVNHGYAKPLENVSRIMEGFSVFVNGYTDPPALVIRDLMISHGGEYHCYYQHGITSYTIASSIATAKINRIRENEIFIKADWITESIAAGKPLDYRDFLIYEKGSVEKGQMQQFLTISTRNTGGNNETTSSNQFSDARNPNFIRDYYARSRLHLISTLAQDMKDFVANLKLEGKLTEKCFEEKELIDMKSLSNEISRESTVFHVDLDCFFVSVAVRNRIDLKHKEVAITHSKGTISNSMSEVASCSYAARDCGVKNGMLVRDALQKCPQLTLLPYQFEDYVQVSRKIYEILASYTLEVRAVSCDEMYINMSSFCEKYEINDPTILAEHIRKVIREKTQCPASVGIGSTSLLARLATRHAKPDGVFWVNAHKKNEFISEEKVKDLPGFGYEMMNRLTSFFGDITKCRELQLKTERELVPVFGPKLASKILRQCRGIEEDPDDFWATHVRKSVSCDINYGIRFTKRGEVIQLMTAIGAELERKLIDSKLTAGSITLKLMVRSANAPIQTSKFMGHGICDTFTKTCNLNVPTTRGESLTSEAMKLYAKVSPKVEDLRGVGVTCGKLKSKLKKDAATAVQEMFGKTSRVGNMARTDEQLNIIPRNEDELDKEPVIIPAVTEDLEVQSIPRQINFRVANDIDIPEIVKSTLLNGRSDNNLELEDLEDDGLVENRLAELECIIQNEPTKESVTNLQEMLSTLLNYGKLSAFETVFRKFEEISMDSSRCDTAWFSVFHLMVPFIEEESKDLLEFPIATTRNLGAMIASNTDNTSISSPEPFVPKEVFVIDSTKHT | not soluble
MHTSILLLTALCAGAYAQFSANGQAAILNVHNTLRSRIAKGTYVAKGTAKPAASDMLKMKWDATVAASAQAYANKCPTGHSGAAGLGENLYWYWTSATITNIDQFGATGSAAWEKEFQDYGWSSNTLSMSLFNTGIGHATQMAWAKTNLIGCGVKNCGKDTNGFNKVTVVCQYKPQGNYLNQNIYTSGTTCSKCPSGTSCEAATGLCA | not soluble
MHYSQMRWMFFCLTALLHGSFIVNAAKILVYCPSISKSHVLLCSKYADLLHNAGHDTVLFIPSYSKLLDNYDGAKHAKVWRLHNVTEAYDTKLGTLANVMENSHIGFIDRLTFDADFWIDMCADLLGKLPEMQHIIDYKFDLVIYNEIDPCTPAIVRLFNIPKTVLLSSEAIMDKVAWNLGKPMTTFAES | not soluble
MIAAQLLAYYFTELKDDQVKKIDKYLYAMRLSDETLIDIMTRFRKEMKNGLSRDFNPTATVKMLPTFVRSIPDGSEKGDFIALDLGGSSFRILRVQVNHEKNQNVHMESEVYDTPENIVHGSGSQLFDHVAECLGDFMEKRKIKDKKLPVGFTFSFPCQQSKIDEAILITWTKRFKASGVEGADVVKLLNKAIKKRGDYDANIVAVVNDTVGTMMTCGYDDQHCEVGLIIGTGTNACYMEELRHIDLVEGDEGRMCINTEWGAFGDDGSLEDIRTEFDRAIDAYSLNPGKQLFEKMVSGMYLGELVRLILVKMAKEGLLFEGRITPELLTRGKFNTSDVSAIEKNKEGLHNAKEILTRLGVEPSDDDCVSVQHVCTIVSFRSANLVAATLGAILNRLRDNKGTPRLRTTVGVDGSLYKTHPQYSRRFHKTLRRLVPDSDVRFLLSESGSGKGAAMVTAVAYRLAEQHRQIEETLAHFHLTKDMLLEVKKRMRAEMELGLRKQTHNNAVVKMLPSFVRRTPDGTENGDFLALDLGGTNFRVLLVKIRSGKKRTVEMHNKIYAIPIEIMQGTGEELFDHIVSCISDFLDYMGIKGPRMPLGFTFSFPCQQTSLDAGILITWTKGFKATDCVGHDVVTLLRDAIKRREEFDLDVVAVVNDTVGTMMTCAYEEPTCEVGLIVGTGSNACYMEEMKNVEMVEGDQGQMCINMEWGAFGDNGCLDDIRTHYDRLVDEYSLNAGKQRYEKMISGMYLGEIVRNILIDFTKKGFLFRGQISETLKTRGIFETKFLSQIESDRLALLQVRAILQQLGLNSTCDDSILVKTVCGVVSRRAAQLCGAGMAAVVDKIRENRGLDRLNVTVGVDGTLYKLHPHFSRIMHQTVKELSPKCNVSFLLSEDGSGKGAALITAVGVRLRTEASS | soluble
MIALFNKLLDWFKALFWKEEMELTLVGLQYSGKTTFVNVIASGQFNEDMIPTVGFNMRKITKGNVTIKLWDIGGQPRFRSMWERYCRGVSAIVYMVDAADQEKIEASKNELHNLLDKPQLQGIPVLVLGNKRDLPGALDEKELIEKMNLSAIQDREICCYSISCKEKDNIDITLQWLIQHSKSRRS | soluble
MIARPTPALGPTPIPRGGGILPRMDRIVIRGAREHNLKNISLELPRGKFIVITGVSGSGKSTLAFDTIYAEGQRRYVESLSSYARQFLGVMDKPEVESIEGLSPAISIDQKTTSHNPRSTVGTVTEIHDYLRLLFARVGQAFCPECGRPIEKQSASEITDRLLKRPPGTRAILMAPLVRGRKGEYRKLFQQLLKEGYARVRVDGVIYLLEEAQGLSLEKYEKHDIDLVIDRVVLKEEERPRIAEAVELALLRGEGLLRVLYPDTGEEELFSEKFACPEHGSVLEELEPRIFSFNSPYGACPACSGLGYRQEFDPELVVNPELSLAEGAILPWSRGRDTGRSYLWDRLRALAEHLGFDLKTPFKDLPEEAKRAVLYGLPEPFEVVFRRGGKETFRVEVRYEGVIPWLEKRYQESDSEGVREALEGFMSLRPCPACGGTRYKREVLSVKVAGRNIAEVSALPVREALAFFQGLEKTLPPFQAQIARPILREIVERLGFLVDVGLDYLTLDRAANTLSGGEAQRIRLATQVGSGLTGVLYVLDEPSIGLHPRDNQRLIRTLKRLRDLGNTLIVVEHDEETMRAADWIVDMGPGAGIHGGEVVAQGTLEDILKSPQSLTGAYLRGEKRIPVPKERRKGNGKWLVLKGARAHNLKNVTLRIPLGRFVAITGPSGSGKSTLVHDVLYAALAQRLMRAKTTPGPYEALEGVEHLDKVIEIDQSPIGRTPRSNPATYTGVFDEIRDLFAKTPEARKRGYGPGRFSFNVKGGRCEACGGDGTVKIEMLFLPDLYVPCEVCKGKRYNKETLEVKLRGKSIADVLDMTVEEALDFFQNVPSIARKLQLMVDVGLGYMKLGQPSPTLSGGEAQRIKLATELGRKATGRTLYILDEPTTGLHFDDVAKLLSVLHRLVDAGNTVVVIEHNLDVVKTADWVIDLGPEGGDRGGEIVAEGTPEEVALTGSPTGAFLARIPEIAARIGVAAD | soluble
MIARYQTPEMARLWSEESRYRMWARVEAYALEAWEALGEVPKGLSARLLAKLEEKPLDGAFARRVAELEAVTRHDLVAFTRALAEWTGDEEVGRYLHLGLTSSDIVDTAQNALLVEALGLVLEELKGVEEALKALALRHKHTPAIARTHGVHAEPTSFGLRFLFFLAAFQRDEERLKRARETIGVAMLSGSVGNYAHVPPEVEAHVASRLGLRPEPLSTQVVPRDRHAEVMAALAILGGNIERVAVELRHLQRTEVLEAQEPFHEGQTGSSSMPHKKNPVGLENLTGVARLLRGYLFPALEDIALWHERDISHSSVERVILPDATTLAHYALRRLKGILEGLEVFEENLARNLDLTRGLVYSQQVLNALIARGLSRNKAYALVQRNALRSWKEGKSFLELLEADPENPLKGKELRALFDPKPFLRHVDAIYARFGL | soluble
MIATLLSSLLLTGPISAGAETQGLLPAQDLLPDIGTSAGATLSIDQEMAMGDFYVRQMRASAPLIYDPLLTQYINTLGNRLVANANSVRTPFHFYLVNNDQINAFAFFGGNVVLHSALFRYTDNESELASVLAHEISHVTQRHLARAMEEQQRLAPLTWVGVLGSILLTMASPQAGMAGLSGTLAGAQQGIISFTQGNEQEADRIGIQVLQRSGFDPQAMPNFLQKLADQSRYVSKPPEMLLTHPLPDSRLSDARNRANQMKPHPTASSQDYLFAKMRILGMYGADENSLTPELLDKLSKGTVREQLAAKYGQAVQLYQAKKYDEARNLLQPLLAQQPGNIWFLDLMTDIDLGQNKSAAAIARLQNAMVKQNDEPVLQLNLANAYVQGRQPAAAIKLLHRYTFAYPNDPNGWDLLAQATATQGLRDQELAARAESLALSGKLTQAIGLLSDASARVKLGSLEQARYDARIDQLRRLNERFRKYQKS | not soluble
MIDFRPFYQQIATSHLSAWLETLPLQLKQWEKTAHSDYAKWAKIATSMPTSPTSINLTDKVEAVLAEALPEGEKQYLIYRLKQLMPWRKGPYHLHGVHIDTEWRSDFKWQRVLPHLAPLKDRTILDVGCGNGYHMWRMVGEDAQMVVGIDPTELFLCQFEAVRQLLGNDRRANLIPLGLEQMQPLAAFDTVFSMGVLYHRKSPLDHLSQLKAQLVKGGELVLETLIIDGDINDILTPADRYAKMKNVYFIPSVAALINWLKKIGFKNARCVDQSVTTLAEQRKTEWLENESLVDFLDPTDQRKTIEGLPAPKRAVILANA | not soluble
MIDISVVIPLLNEAESIPELFAWIRRVMNEHGYSYEVIFVDDGSTDGSWSVIERLQAEHPEVKGIKFRRNYGKSAGLQCGFARTQGQVVITMDADLQDSPDEIPELYRMVTEGGYDLVSGWKRKRYDPLFSKNLPSKLFNATARKLSGIKLHDFNCGLKAYRHEVVENIELYNDMHRYIPYLAKSAGFGRIGEKVVQHQARKYGSSKFGISRFFNGYLDLLTLWFISKFGRKPMH | not soluble
MIDKSSKRDKEVEPLKDNISILIMGVDGSEMRKSQYGEAVRTDALLLATINKDDKSVKLVSIPRDSRVYIPSRKKLDKITHAHVFGGVESTRDTVERFLNVPVDYYVKFNFESFVQIVDSLGGIDIDVPVTFTEQDSKDQAGMIHLEKGYQHLNGEQALALARTRKIDSDAMRGQRQQLVIEAIAKKAMSVQSISKMGSLLDAVDKNMKTNLTFDDMLAITKNMAGSNLEMEKMQVEGTDKRIGGIYYYIPNEKNVKDISKKLNEHLGVLEHHHHHH | soluble
MIDLAKDHLKKVLSLCGANRDCEYYPCHYENQSCLWCYCPFYPCEDENLGEFVKRKDGSLIWSCMKCNWIHKPEIASEVLKEITELTKDKKINDSIEFIDNHEILMNIKRRVEEKLGKDNSV | not soluble
MIDPREPIVTPVPVEELRPTQITVGMREVALKRQMIREQDAKKKTGAFLGKHMVPVVLGPKNRNYVTDHHHLARALLEEGVKDVLVTVISDLSALDKDTFLFVLDNRGWMHPFDESGRRRDYSAIPKTIGELIDDPYRSMAGELRRMGGFAKDTTPFSEFIWADFLRRRIDRNAVAKNFDKAMKEALSLAKGKDADYLPGWCGPTSDAAALEHHHHHH | soluble
MIEFRNVSKVYPNGTKGLNNINLKIQKGEFVVMVGLSGAGKSTLLRSVNRLHEITEGEIMIEGESITAAKGKGLRRMRRDIGMIFQSFNLVKRSTVLKNVLAGRVGYHSTLRTTLGLFPKEDLELAFQSLKRVNILEKAYARADELSGGQQQRVSIARALAQEAKIILADEPVASLDPLTTKQVLEDLKKINEDFGITTIVNLHSIDLARQYATRIIGLHAGEIVFDGLVEEATDEKFAEIYGDVVQKSELLEVAVK | not soluble

Source: the DeepSol protein solubility set
